Reference: publication PMC7072561

Details: ubiquitination at K63

For ubiquitin (HA-tagged): ubiquitin K63R, the other was “decreases”.
